Experimental data reported in US20050283857A1 (UNIVERSITY OF GEORGIA RESEARCH FOUNDATION, published 2005).

Molecular target: Cry1Ab toxin (Bacillus thuringiensis)
Experiment: 125I-Cry1Ab toxin binding saturation assay on S2 cells; dissociation constant (Kcom)

B1: Cad7-12 truncated Bt-R1a cadherin expressed in S2 cells (receptor)
chain: GTLEQNFRVREMSAGGLVVGSVRADDIDGPLYNQVRYTIFPREDTDKDLIMIDFLTGQISVNTSGAIDADTPPRFHLYYTVVASDRCSTEDPADCPPDPTYWETEGNITIHITDTNNKVPQAETTKFDTVVYIYENATHLDEVVTLIASDLDRDEIYHTVSYVINYAVNPRLMNFFSVNRETGLVYVDYETQGSGEVLDRDGDEPTHRIFFNLIDNFMGEGEGNRNQNDTEVLVILLDVNDNAPELPPPSELSWTISENLKQGVRLEPHIFAPDRDEPDTDNSRVGYEILNLSTERDIEVPELFVMIQIANVTGELETAMDLKGYWGTYAIHIRAFDHGIPQMSMNETYELIIHPFNYYAPEFVFPTNDAVIRLARERAVINGVLATVNGEFLERISATDPDGLHAGVVTFQVVGDEESQRYFQVVNDGANLGSLRLLQAVPEEIREFRITIRATDQGTDPGPLSTDMTFRVVFVPTQGEPRFASSEHAVAFIEKSAGMEESHQLPLAQDIKNHLCEDDCHSIYYRIIDGNSEGHFGLDPVRNRLFLKKELIREQSASHTLQVAASNSPDGGIPLPASILTVTVTVREADPRPVFMRELYTAGISTADSIGRELLRLHATQSEGAAITYAIDYDTMVVDPSLEAVRQSAFVLNAQTGVLTLNIQPTATMHGLFKFEVTATDTAGAQDRTDVTVYVVSSQNRVYFVFVNTLQQVEDNRDFIADTFSAGFNMTCNIDQVVPANDPVTGVALEHSTQMRGHFIRDNVPVLADEIEQIRSDLVLLSSIQTTLAARSLVLQDLLTNSSPDSAPDSSLTVYVLASLSAVLGFMCLVLLLTFIIRTRALNRRLEALSMTKYGSLDSGLNRAGIAAPGTNKHTVEGSNPIFNEAIKTPDLDAISEGSNDSDLIGIEDLPHFGNVFMDPEVNEKANGYPEVANHNNNFAFNPTPFSPEFVNGQFRKI
  Kd: 2.05 nM
